Results as given in PMC6783537.

Target: full-length mouse IGF1R (MmIGF1R), residues 1–1262, Y951A, D1107N (mouse) (UniProt Q60751)
Assay: cryo-EM structure; purified MmIGF1R and HsIGF1 mixed at molar ratio 1:2, 1 h at 4 °C, complex purified by SEC in 20 mM Hepes-Na pH 7.4, 200 mM NaCl, 0.03% DDM; 4.3 Å

Chain of full-length mouse IGF1R (MmIGF1R), residues 1–1262, Y951A, D1107N (mouse) (Q60751 31-1292 Y981A/D1137N): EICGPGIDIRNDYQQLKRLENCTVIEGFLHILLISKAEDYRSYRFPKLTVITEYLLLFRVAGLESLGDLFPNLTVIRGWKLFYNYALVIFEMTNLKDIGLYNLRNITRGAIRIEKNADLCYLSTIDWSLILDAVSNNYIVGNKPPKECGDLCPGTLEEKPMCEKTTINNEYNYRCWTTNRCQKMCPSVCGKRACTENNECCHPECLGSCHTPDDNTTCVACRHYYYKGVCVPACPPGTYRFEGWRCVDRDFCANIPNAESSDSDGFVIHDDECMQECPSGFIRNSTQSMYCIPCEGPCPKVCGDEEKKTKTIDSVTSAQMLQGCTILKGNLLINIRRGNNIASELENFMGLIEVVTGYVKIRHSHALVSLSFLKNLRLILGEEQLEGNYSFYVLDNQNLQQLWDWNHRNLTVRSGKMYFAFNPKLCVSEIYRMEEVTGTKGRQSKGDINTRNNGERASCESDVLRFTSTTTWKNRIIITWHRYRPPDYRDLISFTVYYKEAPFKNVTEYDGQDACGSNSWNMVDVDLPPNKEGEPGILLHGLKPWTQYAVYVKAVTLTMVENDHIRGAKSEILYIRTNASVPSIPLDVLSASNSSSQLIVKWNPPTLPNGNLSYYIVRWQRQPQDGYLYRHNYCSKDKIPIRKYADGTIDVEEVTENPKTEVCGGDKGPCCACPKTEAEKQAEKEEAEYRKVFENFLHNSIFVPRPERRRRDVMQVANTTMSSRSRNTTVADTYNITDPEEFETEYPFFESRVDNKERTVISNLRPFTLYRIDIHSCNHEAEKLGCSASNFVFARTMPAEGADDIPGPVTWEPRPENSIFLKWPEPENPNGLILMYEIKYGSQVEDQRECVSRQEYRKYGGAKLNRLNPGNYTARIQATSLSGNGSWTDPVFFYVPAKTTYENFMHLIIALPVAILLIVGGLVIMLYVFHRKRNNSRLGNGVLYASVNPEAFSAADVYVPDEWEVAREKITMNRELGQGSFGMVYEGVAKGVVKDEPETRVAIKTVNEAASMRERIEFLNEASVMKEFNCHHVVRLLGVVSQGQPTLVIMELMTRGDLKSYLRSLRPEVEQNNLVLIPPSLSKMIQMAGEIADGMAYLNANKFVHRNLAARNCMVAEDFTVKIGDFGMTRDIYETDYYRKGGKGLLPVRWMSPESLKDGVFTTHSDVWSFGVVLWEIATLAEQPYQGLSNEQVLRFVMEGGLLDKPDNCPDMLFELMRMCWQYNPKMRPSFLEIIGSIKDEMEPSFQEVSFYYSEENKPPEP

- stoichiometry N (IGF1 per IGF1R dimer): 1
Substance: human IGF1 (HsIGF1), mature, residues 49–118 (ligand)
